Results as given in patent US20220177596A1 (Bristol-Myers Squibb, published 2022).

Target: T1, human-CD40 monomer (human, UniProt P25942 21-193, limits assumed)
T1 construct: also called hCD40-monomer; human-CD40-monomer protein
Assay: SPR 2 pt screen, Ab on protein A
Description: The VH sequences were formatted in the context of an IgG1.3f isotype. The Vκ sequences were formatted as a full light chain with a common CL sequence. All 55 combinations of these humanized HC and LC constructs, as well as the chimeric Y1238 molecule were expressed as 3 ml supernatants for binding analysis by SPR. Each of the 56 supernatants, as well as a purified Y1238-chimeric IgG1 antibody, was captured on a protein A sensor chip and tested for binding to two concentrations (i.e., 200 nM and 1000 nM) of hCD40-monomer using BIAcore™ SPR in a screening assay. All antibodies, except for those containing hz-HC3, captured at high levels (>300 RU) using a 100-fold dilution of the expression supernatant, indicating a high antibody titer in the supernatant except for the hz-HC3 samples. The kinetic data for the two concentrations of hCD40-monomer were fit to a 1:1 Langmuir model, to yield estimates of the kinetic and affinity values for these interactions, and for comparison of the different molecules. […] Also, for a given heavy chain, the antibodies with light chains hz-LC1 or hz-LC2 had higher CD40 affinity than those with hz-LC3, hz-LC4 or hz-LC5.

T1 sequence (P25942 21-193 limits assumed): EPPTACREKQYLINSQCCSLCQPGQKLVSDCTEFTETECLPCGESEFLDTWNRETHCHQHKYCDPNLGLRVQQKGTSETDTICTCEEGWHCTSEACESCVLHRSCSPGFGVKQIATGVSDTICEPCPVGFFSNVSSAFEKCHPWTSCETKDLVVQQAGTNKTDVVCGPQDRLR

| Binder | Kd [nM] | koff [s⁻¹] | kon [M⁻¹ s⁻¹] |
| --- | --- | --- | --- |
| humanized Y1238 hz23 (hz-HC5 / hz-LC3), IgG1.3f (antibody, V domains shown, IgG1.3f heavy constant, common CL; expression supernatant; also called Sup 23) VH: QVQLVQSGAEVKKPGASVKVSCKASGYAFTNYLIEWVRQRPGQGLEWMGVINPGSGGTNYNEKFKGRVTMTADKSISTAYMELSRLRSDDTAVYYCARSQLGRRFDYWGQGTLVTVSS VL: DIQMTQSPSSLSASVGDRVTITCKASQDVRTGVAWYQQKPGQSPKLLIYSASYRNTGVPSRFSGSRSGTDFTFTISSLQPEDIAVYYCQQHYSPPYTFGGGTKVEIK | 7.2 | 0.00031 | 43000 |
| humanized Y1238 hz24 (hz-HC5 / hz-LC4), IgG1.3f (antibody, V domains shown, IgG1.3f heavy constant, common CL; expression supernatant; also called Sup 24) VH: QVQLVQSGAEVKKPGASVKVSCKASGYAFTNYLIEWVRQRPGQGLEWMGVINPGSGGTNYNEKFKGRVTMTADKSISTAYMELSRLRSDDTAVYYCARSQLGRRFDYWGQGTLVTVSS VL: DIQMTQSPSSLSASVGDRVTITCKASQDVRTGVAWYQQKPGQSPKLLIYSASYRNTGVPSRFSGSRSGTDFTFTISSLQAEDIAVYYCQQHYSPPYTFGGGTKVEIK | 7.4 | 0.00032 | 43000 |
| humanized Y1238 hz28 (hz-HC6 / hz-LC3), IgG1.3f (antibody, V domains shown, IgG1.3f heavy constant, common CL; expression supernatant; also called Sup 28) VH: QVQLVQSGAEVKKPGASVKVSCKASGYAFTNYLIEWVRQRPGQGLEWMGVINPGSGGTNYNEKFKGRVTLTADKSISTAYMELSRLRSDDTAVYYCARSQLGRRFDYWGQGTLVTVSS VL: DIQMTQSPSSLSASVGDRVTITCKASQDVRTGVAWYQQKPGQSPKLLIYSASYRNTGVPSRFSGSRSGTDFTFTISSLQPEDIAVYYCQQHYSPPYTFGGGTKVEIK | 5.6 | 0.00024 | 42000 |
| humanized Y1238 hz40 (hz-HC8 / hz-LC5), IgG1.3f (antibody, V domains shown, IgG1.3f heavy constant, common CL; expression supernatant; also called Sup 40) VH: QVQLVQSGAEVVKPGASVKVSCKASGYAFTNYLIEWVRQRPGQGLEWMGVINPGSGGTNYNEKFKGRVTLTADKSSSTAYMQLSRLRSDDTAVYFCARSQLGRRFDYWGQGTLVTVSS VL: DIQMTQSPSSLSASVGDRVTITCKASQDVRTGVAWYQQKPGQAPKLLIYSASYRNTGVPSRFSGSRSGTDFTFTISSLQPEDIAVYYCQQHYSPPYTFGGGTKVEIK | 6.5 | 0.00026 | 39000 |
| humanized Y1238 hz27 (hz-HC6 / hz-LC2), IgG1.3f (antibody, V domains shown, IgG1.3f heavy constant, common CL; expression supernatant; also called Sup 27) VH: QVQLVQSGAEVKKPGASVKVSCKASGYAFTNYLIEWVRQRPGQGLEWMGVINPGSGGTNYNEKFKGRVTLTADKSISTAYMELSRLRSDDTAVYYCARSQLGRRFDYWGQGTLVTVSS VL: DIQMTQSPSSLSASVGDRVTITCKASQDVRTGVAWYQQKPGKAPKLLIYSASYRNTGVPSRFSGSRSGTDFTFTISSLQPEDIATYYCQQHYSPPYTFGGGTKVEIK | 3.3 | 0.00013 | 40000 |
| humanized Y1238 hz30 (hz-HC6 / hz-LC5), IgG1.3f (antibody, V domains shown, IgG1.3f heavy constant, common CL; expression supernatant; also called Sup 30) VH: QVQLVQSGAEVKKPGASVKVSCKASGYAFTNYLIEWVRQRPGQGLEWMGVINPGSGGTNYNEKFKGRVTLTADKSISTAYMELSRLRSDDTAVYYCARSQLGRRFDYWGQGTLVTVSS VL: DIQMTQSPSSLSASVGDRVTITCKASQDVRTGVAWYQQKPGQAPKLLIYSASYRNTGVPSRFSGSRSGTDFTFTISSLQPEDIAVYYCQQHYSPPYTFGGGTKVEIK | 7.7 | 0.00033 | 42000 |
| humanized Y1238 hz39 (hz-HC8 / hz-LC4), IgG1.3f (antibody, V domains shown, IgG1.3f heavy constant, common CL; expression supernatant; also called Sup 39) VH: QVQLVQSGAEVVKPGASVKVSCKASGYAFTNYLIEWVRQRPGQGLEWMGVINPGSGGTNYNEKFKGRVTLTADKSSSTAYMQLSRLRSDDTAVYFCARSQLGRRFDYWGQGTLVTVSS VL: DIQMTQSPSSLSASVGDRVTITCKASQDVRTGVAWYQQKPGQSPKLLIYSASYRNTGVPSRFSGSRSGTDFTFTISSLQAEDIAVYYCQQHYSPPYTFGGGTKVEIK | 7.5 | 0.0003 | 40000 |
| humanized Y1238 hz29 (hz-HC6 / hz-LC4), IgG1.3f (antibody, V domains shown, IgG1.3f heavy constant, common CL; expression supernatant; also called Sup 29) VH: QVQLVQSGAEVKKPGASVKVSCKASGYAFTNYLIEWVRQRPGQGLEWMGVINPGSGGTNYNEKFKGRVTLTADKSISTAYMELSRLRSDDTAVYYCARSQLGRRFDYWGQGTLVTVSS VL: DIQMTQSPSSLSASVGDRVTITCKASQDVRTGVAWYQQKPGQSPKLLIYSASYRNTGVPSRFSGSRSGTDFTFTISSLQAEDIAVYYCQQHYSPPYTFGGGTKVEIK | 6.5 | 0.00028 | 42000 |
| humanized Y1238 hz37 (hz-HC8 / hz-LC2), IgG1.3f (antibody, V domains shown, IgG1.3f heavy constant, common CL; expression supernatant; also called Sup 37) VH: QVQLVQSGAEVVKPGASVKVSCKASGYAFTNYLIEWVRQRPGQGLEWMGVINPGSGGTNYNEKFKGRVTLTADKSSSTAYMQLSRLRSDDTAVYFCARSQLGRRFDYWGQGTLVTVSS VL: DIQMTQSPSSLSASVGDRVTITCKASQDVRTGVAWYQQKPGKAPKLLIYSASYRNTGVPSRFSGSRSGTDFTFTISSLQPEDIATYYCQQHYSPPYTFGGGTKVEIK | 2.8 | 0.00011 | 37000 |
| humanized Y1238 hz38 (hz-HC8 / hz-LC3), IgG1.3f (antibody, V domains shown, IgG1.3f heavy constant, common CL; expression supernatant; also called Sup 38) VH: QVQLVQSGAEVVKPGASVKVSCKASGYAFTNYLIEWVRQRPGQGLEWMGVINPGSGGTNYNEKFKGRVTLTADKSSSTAYMQLSRLRSDDTAVYFCARSQLGRRFDYWGQGTLVTVSS VL: DIQMTQSPSSLSASVGDRVTITCKASQDVRTGVAWYQQKPGQSPKLLIYSASYRNTGVPSRFSGSRSGTDFTFTISSLQPEDIAVYYCQQHYSPPYTFGGGTKVEIK | 8.2 | 0.00032 | 39000 |
| humanized Y1238 hz36 (hz-HC8 / hz-LC1), IgG1.3f (antibody, V domains shown, IgG1.3f heavy constant, common CL; expression supernatant; also called Sup 36) VH: QVQLVQSGAEVVKPGASVKVSCKASGYAFTNYLIEWVRQRPGQGLEWMGVINPGSGGTNYNEKFKGRVTLTADKSSSTAYMQLSRLRSDDTAVYFCARSQLGRRFDYWGQGTLVTVSS VL: DIQMTQSPSSLSASVGDRVTITCKASQDVRTGVAWYQQKPGKAPKLLIYSASYRNTGVPSRFSGSGSGTDFTFTISSLQPEDIATYYCQQHYSPPYTFGGGTKVEIK | 3.7 | 0.00014 | 39000 |
| humanized Y1238 hz31 (hz-HC7 / hz-LC1), IgG1.3f (antibody, V domains shown, IgG1.3f heavy constant, common CL; expression supernatant; also called Sup 31) VH: QVQLVQSGAEVVKPGASVKVSCKASGYAFTNYLIEWVRQRPGQGLEWMGVINPGSGGTNYNEKFKGRVTMTADKSSSTAYMQLSRLRSDDTAVYFCARSQLGRRFDYWGQGTLVTVSS VL: DIQMTQSPSSLSASVGDRVTITCKASQDVRTGVAWYQQKPGKAPKLLIYSASYRNTGVPSRFSGSGSGTDFTFTISSLQPEDIATYYCQQHYSPPYTFGGGTKVEIK | 3 | 0.00012 | 39000 |
| humanized Y1238 hz26 (hz-HC6 / hz-LC1), IgG1.3f (antibody, V domains shown, IgG1.3f heavy constant, common CL; expression supernatant; also called Sup 26) VH: QVQLVQSGAEVKKPGASVKVSCKASGYAFTNYLIEWVRQRPGQGLEWMGVINPGSGGTNYNEKFKGRVTLTADKSISTAYMELSRLRSDDTAVYYCARSQLGRRFDYWGQGTLVTVSS VL: DIQMTQSPSSLSASVGDRVTITCKASQDVRTGVAWYQQKPGKAPKLLIYSASYRNTGVPSRFSGSGSGTDFTFTISSLQPEDIATYYCQQHYSPPYTFGGGTKVEIK | 2.9 | 0.00012 | 41000 |
| humanized Y1238 hz35 (hz-HC7 / hz-LC5), IgG1.3f (antibody, V domains shown, IgG1.3f heavy constant, common CL; expression supernatant; also called Sup 35) VH: QVQLVQSGAEVVKPGASVKVSCKASGYAFTNYLIEWVRQRPGQGLEWMGVINPGSGGTNYNEKFKGRVTMTADKSSSTAYMQLSRLRSDDTAVYFCARSQLGRRFDYWGQGTLVTVSS VL: DIQMTQSPSSLSASVGDRVTITCKASQDVRTGVAWYQQKPGQAPKLLIYSASYRNTGVPSRFSGSRSGTDFTFTISSLQPEDIAVYYCQQHYSPPYTFGGGTKVEIK | 9.2 | 0.00037 | 40000 |
| humanized Y1238 hz33 (hz-HC7 / hz-LC3), IgG1.3f (antibody, V domains shown, IgG1.3f heavy constant, common CL; expression supernatant; also called Sup 33) VH: QVQLVQSGAEVVKPGASVKVSCKASGYAFTNYLIEWVRQRPGQGLEWMGVINPGSGGTNYNEKFKGRVTMTADKSSSTAYMQLSRLRSDDTAVYFCARSQLGRRFDYWGQGTLVTVSS VL: DIQMTQSPSSLSASVGDRVTITCKASQDVRTGVAWYQQKPGQSPKLLIYSASYRNTGVPSRFSGSRSGTDFTFTISSLQPEDIAVYYCQQHYSPPYTFGGGTKVEIK | 8.7 | 0.00035 | 40000 |
| humanized Y1238 hz34 (hz-HC7 / hz-LC4), IgG1.3f (antibody, V domains shown, IgG1.3f heavy constant, common CL; expression supernatant; also called Sup 34) VH: QVQLVQSGAEVVKPGASVKVSCKASGYAFTNYLIEWVRQRPGQGLEWMGVINPGSGGTNYNEKFKGRVTMTADKSSSTAYMQLSRLRSDDTAVYFCARSQLGRRFDYWGQGTLVTVSS VL: DIQMTQSPSSLSASVGDRVTITCKASQDVRTGVAWYQQKPGQSPKLLIYSASYRNTGVPSRFSGSRSGTDFTFTISSLQAEDIAVYYCQQHYSPPYTFGGGTKVEIK | 7.1 | 0.00028 | 40000 |
| humanized Y1238 hz32 (hz-HC7 / hz-LC2), IgG1.3f (antibody, V domains shown, IgG1.3f heavy constant, common CL; expression supernatant; also called Sup 32) VH: QVQLVQSGAEVVKPGASVKVSCKASGYAFTNYLIEWVRQRPGQGLEWMGVINPGSGGTNYNEKFKGRVTMTADKSSSTAYMQLSRLRSDDTAVYFCARSQLGRRFDYWGQGTLVTVSS VL: DIQMTQSPSSLSASVGDRVTITCKASQDVRTGVAWYQQKPGKAPKLLIYSASYRNTGVPSRFSGSRSGTDFTFTISSLQPEDIATYYCQQHYSPPYTFGGGTKVEIK | 4.5 | 0.00017 | 37000 |
